Experimental data reported in US20050148031A1, “Catalytic efficiency and/or specificity of non-native substrates of enzymes” (priority 2003, published 2005).

Tests used:
[1] = target: T1, MEK2 phosphorylation of ERK2 (Mus musculus, UniProt P63085, K52R); test: Kinase assay: MEK2 phosphorylation of ERK2 with docking domain peptides; assay type: biochemical, human (MEK2)
T1 construct: purchased New England Biolabs (ERK2 K52R); Upstate Biotechnology (MEK2)
Description: The following experiment was done to investigate whether docking domain peptides could inhibit MEK2 phosphorylation of ERK2. […] An autoradiogram of a representative experiment is shown (see FIG. 2A). The results were plotted as percent phoshphorylation relative to that observed in the absence of any added peptide (see FIG. 2B). ERK2 phosphorylation was analyzed by SDS-PAGE and quantified. Data are the average of two to four experiments, with triplicate data points in each experiment.
ERK2 and peptide were pre-incubated in buffer for 10 min at 37° C., then returned to ice prior to the addition of ATP and MEK2. Reactions were for 20 min at 30° C. ERK2 phosphorylation was quantified by SDS-PAGE followed by analysis of relative incorporation using a Phosphorlmager™ (Molecular Dynamics, Inc.).

[2] = target: T2, MKP-1 dephosphorylation of ERK2 (Mus musculus, UniProt P63085); test: Phosphatase assay: MKP-1 dephosphorylation of ERK2 with docking domain peptides; assay type: biochemical, human (MKP-1); details: western blot with anti-phospho-ERK2
T2 construct: purchased Upstate Biotechnology (MKP-1); no vendor is printed for the active ERK2 in this assay
Description: The following experiment was performed to assess whether MAPK-docking domain peptides would inhibit dephosphorylation of ERK2 by MKP-1. Purified, full-length, activated ERK2 (0.5 pmol) was incubated with 0.5 units of purified active MKP-1 for 20 min, in the absence or presence of the specified concentrations of the indicated peptides. ERK2 dephosphoryation was quantified by SDS-PAGE followed by western blotting and immonostaining with anti-phospho-ERK2 (Thr202/Tyr204). The lanes corresponding to ERK2 with no MKP-1 or no added peptide contain 50% of the relative amounts loaded in all other lanes (see FIG. 4A).
Phosphatase reactions (20 μl) for MKP-1 dephosphorylation of ERK2 contained 50 mM Tris-HCl (pH 7.5), 50 mM NaCl, 0.5 pmol active mouse ERK2, 0.5 units active human MKP-1 (Upstate Biotechnology) and the indicated concentration of peptide. Reactions were for 30 min. at 30° C. Reactions were analyzed by SDS-PAGE followed by western transfer and immunostaining with anti-phospho-ERK2 (Thr202/Tyro204) antibody (New England Biolabs).

MEK2 binding to GST-ERK2 = target: T3, MEK2 binding to GST-ERK2 (Mus musculus, UniProt P63085); test: GST co-sedimentation (pull-down) assay of 35S-MEK2 binding to GST-ERK2; details: 25 μM or 100 μM peptide
T3 construct: made in house; host or cells: MEK2 by in vitro translation
Description: The purpose of the following experiment is to assess whether MAPK docking domain peptides would inhibit MEK2-binding to GST-ERK2. Radiolabeled (^35S) MEK2 and MEK2Δ4-16 proteins (˜1 pmol) were prepared by in vitro translation, partially purified by ammonium sulfate precipitation, and then incubated with 10 μg of purified GST or GST-ERK2 pre-bound to glutathione-Sepharose beads, in the absence or presence of the specified concentrations of docking domain peptides (Ste7, MEK1, MEK2, Elk-1) or mutant forms of docking domain peptides (scram7, MEK2EEAA, ElkEEG). Bead-bound protein complexes were isolated by sedimentation and resolved on 12% SDS-polyacrylamide gels. An autoradiogram of a representative experiment is illustrated (see FIG. 5A). Gels were analyzed by staining with Coomassie Blue for visualization of the bound GST fusion protein in order to verify equal amounts in each reaction and by autoradiography for visualization of the bound radiolabeled MEK2 or MEK2Δ4-16 to GST or GST-ERK2 in the absence of peptide (hatched bars), or in the presence of 25 μM (light gray bars) or 100 μM peptide (dark gray bars) (see FIG. 5B). Data are the average of three to five experiments; standard error bars are shown.
The constructs and methods used in the GST co-sedimentation (“pull-down”) experiments shown in FIG. 5 have been described elsewhere (Bardwell et al., 2001). […]

## CC[C@H](C)[C@H](NC(=O)[C@@H]1CCCN1C(=O)[C@@H](NC(=O)[C@@H]1CCCN1C(=O)[C@H](CCCCN)NC(=O)[C@H](CCCCN)NC(=O)[C@H](CCCCN)NC(=O)[C@@H]1CCCN1C(=O)[C@@H](N)CCSC)[C@@H](C)O)C(=O)N[C@@H](CCC(N)=O)C(=O)N[C@@H](CC(C)C)C(=O)N[C@@H](CC(N)=O)C(=O)N1CCC[C@H]1C(=O)N[C@@H](C)C(=O)N1CCC[C@H]1C(=O)N[C@@H](CC(=O)O)C(=O)NCC(=O)O [MEK1, MPKKKPTPIQLNPAPDG]
[1]; 1 μM inactive ERK2, 0.1 units active MEK2, 20 min, read-out: IC50 for inhibition of MEK2 phosphorylation of ERK2
  IC50: ~100 µM

## KGRKPRDLELPLSPS [Elk-1, docking domain peptide from Elk-1 residues 312-326]
[2]
  inhibition of MKP-1 mediated dephosphorylation of phospho-ERK2 (in words): dose-dependent inhibition
MEK2 binding to GST-ERK2
  inhibition of MEK2 protein co-sedimentation with GST-ERK2 (in words): inhibited

## MLAEEKPVLPAATANPTIAE [MEK2 mutant peptide, MEK2 peptide with mutations in basic and hydrophobic residues]
[1]; peptide titrated into MEK2 kinase assay
  inhibition of ERK2 phosphorylation by MEK2 (in words): did not inhibit
